Data on five molecules can be found in patent US20240400715A1 (VIBRANT PHARMA, published 2024).

Positions count from the first letter of the chain named. Where “and” joins values, the source holds several entries; their conditions need not be identical. Equal entries are not always repeated.

B1: CEA-Knob+Fab-Hole (104) (bispecific antibody, human IgG4 S228P, kappa, F234A L235A)
chain: EVQLVESGGGFVQAGESLTLSCTSSTLTFTPYRMAWYRQAPGKQRDLVADISSGDGRTTNYADFAKGRFTISRDNIKNTVFLRMTNLKPEDTAVYYCNTFVSFVGIARSWGQGTQVTVSSESKYGPPCPPCPAPEAAGGPSVFLFPPKPKDTLMISRTPEVTCVVVDVSQEDPEVQFNWYVDGVEVHNAKTKPREEQFNSTYRVVSVLTVLHQDWLNGKEYKCKVSNKGLPSSIEKTISKAKGQPREPQVYTLPPCQEEMTKNQVSLWCLVKGFYPSDIAVEWESNGQPENNYKTTPPVLDSDGSFFLYSRLTVDKSRWQEGNVFSCSVMHEALHNHYTQKSLSLSL
heavy: EVKLLESGGGLVQPKGSLKLSCAASGFTFNTYAMNWVRQAPGKGLEWVARIRSKYNNYATYYADSVKDRFTISRDDSQSILYLQMNNLKTEDTAMYYCVRHGNFGNSYVSWFAYWGQGTLVTVSSASTKGPSVFPLAPCSRSTSESTAALGCLVKDYFPEPVTVSWNSGALTSGVHTFPAVLQSSGLYSLSSVVTVPSSSLGTKTYTCNVDHKPSNTKVDKRVESKYGPPCPPCPAPEAAGGPSVFLFPPKPKDTLMISRTPEVTCVVVDVSQEDPEVQFNWYVDGVEVHNAKTKPREEQFNSTYRVVSVLTVLHQDWLNGKEYKCKVSNKGLPSSIEKTISKAKGQPREPQVCTLPPSQEEMTKNQVSLSCAVKGFYPSDIAVEWESNGQPENNYKTTPPVLDSDGSFFLVSRLTVDKSRWQEGNVFSCSVMHEALHNRFTQKSLSLSL
light: QAVVTQESALTTSPGETVTLTCRSSTGAVTTSNYANWVQEKPDHLFTGLIGGTNKRAPGVPARFSGSLIGDKAALTITGAQTEDEAIYFCALWYSNLWVFGGGTKVEIKRTVAAPSVFIFPPSDEQLKSGTASVVCLLNNFYPREAKVQWKVDNALQSGNSQESVTEQDSKDSTYSLSSTLTLSKADYEKHKVYACEVTHQGLSSPVTKSFNRGEC
notes: Anti-CD3 TA1 Fab + anti-CEA VHH C17 on human IgG4 knob-into-hole Fc
B2: Knob-CEA+Fab-Hole (105) (bispecific antibody, human IgG4 S228P, kappa, F234A L235A)
chain: ESKYGPPCPPCPAPEAAGGPSVFLFPPKPKDTLMISRTPEVTCVVVDVSQEDPEVQFNWYVDGVEVHNAKTKPREEQFNSTYRVVSVLTVLHQDWLNGKEYKCKVSNKGLPSSIEKTISKAKGQPREPQVYTLPPCQEEMTKNQVSLWCLVKGFYPSDIAVEWESNGQPENNYKTTPPVLDSDGSFFLYSRLTVDKSRWQEGNVFSCSVMHEALHNHYTQKSLSLSLGGGGSGGGGSEVQLVESGGGFVQAGESLTLSCTSSTLTFTPYRMAWYRQAPGKQRDLVADISSGDGRTTNYADFAKGRFTISRDNIKNTVFLRMTNLKPEDTAVYYCNTFVSFVGIARSWGQGTQVTVSS
heavy: B1 heavy
light: B1 light
notes: as for B1
B3: CEA-Fab-Knob-+Hole (205) (bispecific antibody, human IgG4 S228P, kappa, F234A L235A)
heavy: EVQLVESGGGFVQAGESLTLSCTSSTLTFTPYRMAWYRQAPGKQRDLVADISSGDGRTTNYADFAKGRFTISRDNIKNTVFLRMTNLKPEDTAVYYCNTFVSFVGIARSWGQGTQVTVSSGGGGSGGGGSEVKLLESGGGLVQPKGSLKLSCAASGFTFNTYAMNWVRQAPGKGLEWVARIRSKYNNYATYYADSVKDRFTISRDDSQSILYLQMNNLKTEDTAMYYCVRHGNFGNSYVSWFAYWGQGTLVTVSSASTKGPSVFPLAPCSRSTSESTAALGCLVKDYFPEPVTVSWNSGALTSGVHTFPAVLQSSGLYSLSSVVTVPSSSLGTKTYTCNVDHKPSNTKVDKRVESKYGPPCPPCPAPEAAGGPSVFLFPPKPKDTLMISRTPEVTCVVVDVSQEDPEVQFNWYVDGVEVHNAKTKPREEQFNSTYRVVSVLTVLHQDWLNGKEYKCKVSNKGLPSSIEKTISKAKGQPREPQVYTLPPCQEEMTKNQVSLWCLVKGFYPSDIAVEWESNGQPENNYKTTPPVLDSDGSFFLYSRLTVDKSRWQEGNVFSCSVMHEALHNHYTQKSLSLSL
chain: ESKYGPPCPPCPAPEAAGGPSVFLFPPKPKDTLMISRTPEVTCVVVDVSQEDPEVQFNWYVDGVEVHNAKTKPREEQFNSTYRVVSVLTVLHQDWLNGKEYKCKVSNKGLPSSIEKTISKAKGQPREPQVCTLPPSQEEMTKNQVSLSCAVKGFYPSDIAVEWESNGQPENNYKTTPPVLDSDGSFFLVSRLTVDKSRWQEGNVFSCSVMHEALHNRFTQKSLSLSL
light: B1 light
notes: VHH linked to the VH of the Fab; human IgG4 knob-into-hole Fc
B4: 305 (TA6), configuration of FIG. 1W (bispecific antibody, IgG4)
heavy: EVQLVQSGAEVKKPGASVKVSCKASGYTFTNYYIHWVRQAPGQGLEWIGWIYPGDGNTKYNEKFKGRATLTADTSTSTAYLELSSLRSEDTAVYYCARDSYSNYYFDYWGQGTLVTVSSASTKGPSVFPLAPCSRSTSESTAALGCLVKDYFPEPVTVSWNSGALTSGVHTFPAVLQSSGLYSLSSVVTVPSSSLGTKTYTCNVDHKPSNTKVDKRVESKYGPPCPPCPAPEAAGGPSVFLFPPKPKDTLMISRTPEVTCVVVDVSQEDPEVQFNWYVDGVEVHNAKTKPREEQFNSTYRVVSVLTVLHQDWLNGKEYKCKVSNKGLPSSIEKTISKAKGQPREPQVYTLPPCQEEMTKNQVSLWCLVKGFYPSDIAVEWESNGQPENNYKTTPPVLDSDGSFFLYSRLTVDKSRWQEGNVFSCSVMHEALHNHYTQKSLSLSL
chain: B1 chain with Y251C, C256S, W268S, L270A, Y309V, H337R, Y338F
light: DIVMTQSPDSLAVSLGERATINCKSSQSLLNSRTRKNYLAWYQQKPGQPPKLLIYWASTRESGVPDRFSGSGSGTDFTLTISSLQAEDVAVYYCTQSFILRTFGQGTKVEIK
notes: chains put together from VH/VL, CH1, knob-Fc; IgG4, kappa; also called CEA-CD3 bispecific antibody 305; not shown: kappa light chain constant domain (CL)
B5: Knob+CEA-Fab-Hole (204) (bispecific antibody, human IgG4 S228P, kappa, F234A L235A)
chain: B3 chain with C131Y, S136C, S148W, A150L, V189Y, R217H, F218Y
heavy: B1 heavy
light: EVQLVESGGGFVQAGESLTLSCTSSTLTFTPYRMAWYRQAPGKQRDLVADISSGDGRTTNYADFAKGRFTISRDNIKNTVFLRMTNLKPEDTAVYYCNTFVSFVGIARSWGQGTQVTVSSGGGGSGGGGSQAVVTQESALTTSPGETVTLTCRSSTGAVTTSNYANWVQEKPDHLFTGLIGGTNKRAPGVPARFSGSLIGDKAALTITGAQTEDEAIYFCALWYSNLWVFGGGTKVEIKRTVAAPSVFIFPPSDEQLKSGTASVVCLLNNFYPREAKVQWKVDNALQSGNSQESVTEQDSKDSTYSLSSTLTLSKADYEKHKVYACEVTHQGLSSPVTKSFNRGEC
notes: VHH linked to the VL of the Fab; human IgG4 knob-into-hole Fc

The target of one assay is T1, human CD3 on Jurkat cells (human, UniProt P07766 23-207; P04234 22-171; P09693 23-182).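 Also: flow cytometric binding of bispecific antibodies to Jurkat T cells, threefold serial dilutions incubated half an hour in the cold, EC50 taken from the fitted binding curve.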
T1 construct: whole, on cells; CD3 complex as on Jurkat (Clone E6-1) cells; also called CD3 expressing cells (Jurkat)
The experiment in a line: FACS, Jurkat cells. (In general: A flow cytometer gives signals particle by particle.)
In general, EC50 refers to the midpoint of the concentration-response curve. Read a low EC50 as an effect from little substance. For the molecule B1, the EC50 was 3.35 µg/mL and 25.8 nM.
Same read-out and setting: under B2 stands 0.85 µg/mL and 6.54 nM.
Same read-out and setting: under B3 stands 0.195 µg/mL and 1.5 nM; under B4, 0.267 µg/mL and 2.05 nM.
Still for that read-out and setting: under B5 stands 1.36 µg/mL and 10.4 nM.

For the next assay, the target named is T2, human CD3ε/δ (ACRO systems, CDD-H52W1) (human, UniProt P07766 23-126; P04234 22-105).
T2 construct: Bought protein; also called human CD3ϵ/CD3δ; human CD3 epsilon/delta antigen
The experiment in a line: BLI, antibody captured, antigen in solution.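 Also: bispecific antibodies captured on AHIC biosensors to a 1.5 nm loading signal, in PBST with 0.02% detergent.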
Experimental: The bispecific antibodies were diluted to 5 ag/ml, and 1.5 nm protein was coupled to the surface of the AHIC sensor chip through 0.02% PBST.
Usually Kd stands for the free concentration of one partner at which half of the binding sites on the other are occupied at equilibrium, for simple one-to-one binding. A high value points to a looser complex. The term koff denotes a measure of how fast the partners let go of each other. What is called kon is the rate constant with which the complex forms. A lower kon goes with slow association. B1 returned a Kd of 0.839 nM, a koff of 0.0003 s⁻¹ and a kon of 357000 M⁻¹ s⁻¹.
For B2 the same measures were 0.696 nM, 0.000256 s⁻¹ and 367000 M⁻¹ s⁻¹.
For B3 the same measures were 2.38 nM, 0.000666 s⁻¹ and 279000 M⁻¹ s⁻¹.
The corresponding values for B4 are 2.85 nM, 0.00087 s⁻¹ and 324000 M⁻¹ s⁻¹.
Molecule B5 yielded a Kd of 2.91 nM, a koff of 0.000571 s⁻¹ and an association rate constant (kon) of 197000 M⁻¹ s⁻¹.
